Here are results for 83 variants from the RNAGym collection of RNA variant scans (doi:10.1073/pnas.2313332121).

B1: TPR 5TU (parent)
chain: GGAUCUUCUCGAUCUAACAAAAAAGACAAAUCUGCCACAAAGCUUGAGAGCAUCUUCGGAUGCAGAGGCGGCAGCCUUCGGUGGCGCGAUAGCGCCAACGUUCUCAACUAUGACACGCAAAACGCGUGCUCCGUUGAAUGGAGUUUAUCAUG

Fewer inactive variants are shown than the library holds. Some results are limits rather than exact numbers.

In this series the parent is B1. Nature of the series: polymerase ribozyme fitness, log enrichment relative to wild type (log ratio); higher = more active; in vitro selection for triplet polymerase activity. In outline: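 Fitness compares each genotype's enrichment to that of the wild type on a logarithmic scale, averaging replicates with inverse-variance weights. The logarithm is base 2. Enrichment came from Illumina sequencing of input and output libraries after one triplicate round of in vitro selection, which included frozen incubation at −7 °C, of PCR-built, transcribed mutant libraries of each subunit of a heterodimeric triplet polymerase ribozyme. Only genotypes with ≥10 input reads and ≥1 read per output were kept.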
In the case of A12U C57U C85G A115C G133U U139C, the “polymerase ribozyme fitness (log ratio)” value was at most -4.2.
For C10G G65U G88C C105U C114A, the “polymerase ribozyme fitness (log ratio)” value was at most -4.2.
Under A47U G59A G124U stands -0.07.
On to G59C A138C, for which the “polymerase ribozyme fitness (log ratio)” value is -3.7.
Under C54A U61A A73G U77G G100A stands at most -4.2; under A41U G88C, at most -4.2.
Turning to U77C G81A G86U G100A G133U, the “polymerase ribozyme fitness (log ratio)” value is at most -4.2.
For A52C U61A G88U C96U G136U, the “polymerase ribozyme fitness (log ratio)” value was at most -4.2.
Turning to U7C C85U, the “polymerase ribozyme fitness (log ratio)” value was -2.04.
With A64C G88C U90G U102G A119U A120U C149G, the “polymerase ribozyme fitness (log ratio)” value is at most -4.2.
As for A40U A60U G70C C76U C96A, the “polymerase ribozyme fitness (log ratio)” value was at most -4.2.
In the case of G70C A98U, the “polymerase ribozyme fitness (log ratio)” value is -2.78.
With A52G G92A A113U, the “polymerase ribozyme fitness (log ratio)” value is -3.81.
Regarding U61A U102C, the “polymerase ribozyme fitness (log ratio)” value was -2.2.
Take C5G A17G U61A G67A C93A C95U G140U: the “polymerase ribozyme fitness (log ratio)” value was at most -4.2.
On to C85A C116U A122C, for which the “polymerase ribozyme fitness (log ratio)” value is -4.17.
On to A60G G83A A98G, for which the “polymerase ribozyme fitness (log ratio)” value worked out at 0.0303.
As to C51U A110G, the “polymerase ribozyme fitness (log ratio)” value was -3.47.
Turning to U53A C57G C75G G83C U102A A121U U144A U145C, the “polymerase ribozyme fitness (log ratio)” value is at most -4.2.
Regarding C10G G11U A28C A37G G46U G88U C96U U102G C105U, the “polymerase ribozyme fitness (log ratio)” value is at most -4.2.
Consider C27U A37G U104G, for which the “polymerase ribozyme fitness (log ratio)” value is -4.08.
In the case of C8G G80C, the “polymerase ribozyme fitness (log ratio)” value is at most -4.2.
Turning to C10G C87U, the “polymerase ribozyme fitness (log ratio)” value is -3.38.
As to C57U A115G U144C, the “polymerase ribozyme fitness (log ratio)” value was at most -4.2.
C57A C85A A147G: the “polymerase ribozyme fitness (log ratio)” value was -1.09.
As for C35A G92A A107G, the “polymerase ribozyme fitness (log ratio)” value is at most -4.2.
A16C A21U C76U C105U: the “polymerase ribozyme fitness (log ratio)” value is -1.77.
For A30G A47U U53A C76G C96U C118A, the “polymerase ribozyme fitness (log ratio)” value was at most -4.2.
Consider A39U A52U G83A U109G, for which the “polymerase ribozyme fitness (log ratio)” value was at most -4.2.
Turning to G59A A60G U77G U127C, the “polymerase ribozyme fitness (log ratio)” value is at most -4.2.
With A3U G50U U145C, the “polymerase ribozyme fitness (log ratio)” value is -0.472.
In the case of C8G U56G A91G, the “polymerase ribozyme fitness (log ratio)” value is at most -4.2.
In the case of A22C A60G C96G C114A C131G, the “polymerase ribozyme fitness (log ratio)” value was at most -4.2.
With A23U C76G C93G, the “polymerase ribozyme fitness (log ratio)” value was at most -4.2.
Take A24U C85A: the “polymerase ribozyme fitness (log ratio)” value was -1.22.
For A52G G143C, the “polymerase ribozyme fitness (log ratio)” value was -3.77.
Turning to G83C C99G, the “polymerase ribozyme fitness (log ratio)” value was -3.88.
Take C85A C87G G88C A97G U130G G141C: the “polymerase ribozyme fitness (log ratio)” value is at most -4.2.
As for U9C G11A A23U C36U C51A G92C G117C, the “polymerase ribozyme fitness (log ratio)” value is at most -4.2.
For G48C G50A C54U C85A C129G, the “polymerase ribozyme fitness (log ratio)” value was at most -4.2.
For the variant C57A C85U G143A, the “polymerase ribozyme fitness (log ratio)” value is -0.323.
Take C18U A19G G50A C54U G67C C69A G92C C114A A120U U134G: the “polymerase ribozyme fitness (log ratio)” value was at most -4.2.
For the variant C38G U55G C76A G141A, the “polymerase ribozyme fitness (log ratio)” value is at most -4.2.
Then U55A A98U U111C, with -4.16.
On to G42C, for which the “polymerase ribozyme fitness (log ratio)” value is -3.77.
As for C69U U78G C96G U134A U135C, the “polymerase ribozyme fitness (log ratio)” value is at most -4.2.
In the case of C14G A19G A20C G117A G124C, the “polymerase ribozyme fitness (log ratio)” value was -3.94.
Then A89C C131A, with -3.23; and A41C G50A A52G A120C, with -2.96.
U55A C85U C114G G128A: the “polymerase ribozyme fitness (log ratio)” value was at most -4.2.
With A28G U44G C51U C75A C76G G84U G140A, the “polymerase ribozyme fitness (log ratio)” value is at most -4.2.
Regarding U4C C18U U53A A73G U134C, the “polymerase ribozyme fitness (log ratio)” value was -2.31.
Then G58C G88U C105A G141C U144G U146G, with at most -4.2; and G86U A107G C116A G136U A138C, with at most -4.2; and U15G C57U G58C C76A, with -0.888.
Consider A17G A39G C57A C96A, for which the “polymerase ribozyme fitness (log ratio)” value is -2.
Consider C35U C54A G58C, for which the “polymerase ribozyme fitness (log ratio)” value was -1.17.
Then G50U C57U, with 1.
For A19U C79U G83A G88C, the “polymerase ribozyme fitness (log ratio)” value is at most -4.2.
Under A41C G67C C85A C131U A137G stands at most -4.2.
Consider A22G C85A G143C, for which the “polymerase ribozyme fitness (log ratio)” value was -2.92.
Turning to C8G G83A C99U, the “polymerase ribozyme fitness (log ratio)” value is at most -4.2.
Take G48A C85U C114U A122C: the “polymerase ribozyme fitness (log ratio)” value was -2.44.
For A26U G59U C69G A142G, the “polymerase ribozyme fitness (log ratio)” value was -2.52.
For the variant A29G U78C, the “polymerase ribozyme fitness (log ratio)” value was at most -4.2.
With A19C U31A G92U, the “polymerase ribozyme fitness (log ratio)” value is 0.391.
Regarding A119C G133C, the “polymerase ribozyme fitness (log ratio)” value was -1.83.
A20C G88A: the “polymerase ribozyme fitness (log ratio)” value is -3.56.
Consider G25U C36U C54G, for which the “polymerase ribozyme fitness (log ratio)” value was -4.13.
Under A29U A39G U55A G92A stands at most -4.2; under G46A U53G C57U G86A A115C, at most -4.2; under C14A A28G A122U U134G U144G, at most -4.2.
As to G65U G84U G88A, the “polymerase ribozyme fitness (log ratio)” value was at most -4.2.
With A17G A41U C54U A73G, the “polymerase ribozyme fitness (log ratio)” value was -1.46.
Consider A12G A19G A41C C95U G126A, for which the “polymerase ribozyme fitness (log ratio)” value was -1.94.
As for A20C U53C G59A G136C, the “polymerase ribozyme fitness (log ratio)” value was -3.81.
For the variant G62A G84A, the “polymerase ribozyme fitness (log ratio)” value is -2.31.
Regarding A30G A49G, the “polymerase ribozyme fitness (log ratio)” value was at most -4.2.
With A41C G81A G92U G136U, the “polymerase ribozyme fitness (log ratio)” value is -3.13.
As to U4C C5A U15C C36G U53A, the “polymerase ribozyme fitness (log ratio)” value is -4.12.
Then C51U C69A C96U G141C, with -3.18.
Take C76U G84U A113U A122U: the “polymerase ribozyme fitness (log ratio)” value is -3.77.
Take U55A G62C G117A C131G: the “polymerase ribozyme fitness (log ratio)” value was at most -4.2.
